The values that follow come from US20220340687A1.

The test addresses high affinity IgE receptor (FcεR1) (human) (UniProt P12319). Put plainly: flow cytometry of purified human pDCs, mean over all assayed donors. A general note: Flow cytometry measures light scatter and fluorescence of single cells or particles in a stream.

Sequence of human immunoglobulin E (IgE) (P01854 other isoform, or with tags, fused parts or gaps): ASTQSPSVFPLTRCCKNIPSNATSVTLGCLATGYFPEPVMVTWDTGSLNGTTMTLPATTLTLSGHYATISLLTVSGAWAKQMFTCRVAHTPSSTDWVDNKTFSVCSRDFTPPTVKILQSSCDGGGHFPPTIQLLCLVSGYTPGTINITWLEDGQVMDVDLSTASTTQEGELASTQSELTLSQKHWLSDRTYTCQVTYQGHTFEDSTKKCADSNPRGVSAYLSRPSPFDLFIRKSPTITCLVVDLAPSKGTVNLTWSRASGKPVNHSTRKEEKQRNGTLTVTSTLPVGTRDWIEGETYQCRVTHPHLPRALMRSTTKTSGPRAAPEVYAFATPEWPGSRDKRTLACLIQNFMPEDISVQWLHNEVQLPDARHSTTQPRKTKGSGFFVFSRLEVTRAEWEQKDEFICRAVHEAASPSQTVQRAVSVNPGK
Sequence of high affinity IgE receptor (FcεR1) (human) (P12319 26-257): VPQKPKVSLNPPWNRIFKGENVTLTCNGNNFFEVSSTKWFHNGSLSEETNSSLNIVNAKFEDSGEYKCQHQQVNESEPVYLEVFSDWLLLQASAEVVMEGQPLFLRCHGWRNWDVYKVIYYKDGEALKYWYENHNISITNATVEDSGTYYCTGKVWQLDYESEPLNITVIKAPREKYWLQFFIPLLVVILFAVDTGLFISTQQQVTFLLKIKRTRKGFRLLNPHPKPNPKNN

“human immunoglobulin E (IgE) (from UniProt P01854 1-428) (antibody)” displayed a percentage of pDCs displaying IgE bound to FcεR1 of 45.7%.
